Experimental data reported in patent US20240417476A1.

These binders were tested against recombinant NRP2 isoform a (human) (UniProt O60462) (assay: BLI, antibody captured by anti-mouse kappa, NRP2a titrated 0.62-450 nM, 1:1 fit).

Kd | Binder
2.1 nM | aNRP2-408v2 (antibody, V domains shown) VH: EVKLVESGGGLVKPGGSLKLSCAASGFTFSSYAMSWVRQTPEKRLEWVASISRGSITYYPDSVKGRFTISRDNAGNILYLQMSSLRSEDTAMYYCAREYYYAMDYWGQGTSVTVSS VL: DIQMTQSPSSLSASLGERVSLTCRASQDIGSRLNWLQQEPDGTIKRLIYATSSLDSGVPKRFSGSRSGSDYSLTISSLESEDFVDYYCLQYASSPYTFGGGTKLEIK
2.23 nM | aNRP2-409v3 (antibody, V domains shown) VH: EVQFVETGGGLVQPKGSLKLSCAASGFTFNTNAMNWVRQAPGKGLEWVARIRTKSNNYATYYADSVKDRFTISRDDSQNILYLQMNNLKTEDTAMYYCVTLDSSGYVWFAYWGQGTLVTVSA VL: DIQMTQSPSSLSASLGERVSLTCRASQDIGSRLNWLQQEPDGTIKRLIYATSSLDSGVPKRFSGSRSGSDYSLTISSLESEDFVDYYCLQYASSPYTFGGGTKLEIK
0.48 nM | aNRP2-405v2 (antibody, V domains shown) VH: EVMLVESGGGLVKPGGSLKLSCAASGFTFRRYAMSWVRQTPEKGLEWVATITSGGSYTYYLDSVKGRITISRDNAKNTLYLQMSSLRSEDTAMYYCARHGIYGGFDYWGQGTTLTVSS VL: DVLMTQTPLSLPVSLGDQASISCRSSQSIVHSDGNTYLEWYLQKPGQSPNLLIYKVSNRFSGVPDRFSGSGSGTDFTLKISRVEAEDLGIYYCFQGSHVPFTFGSGTKLEIK
0.352 nM | aNRP2-407v2 (antibody, V domains shown) VH: EVQLQQSGPELVKPGASVTISCKASGYSFTGYYMHWVKQSHVKSLEWIGRINPYNGATSYSQNFKDKASLTIDKSSSTAYMELHSLTSEDSAVYYCAREETTAPFTYWGQGTLVTVSA VL: DIVMSQSPSSLAVSVGEKVTMSCKSSQSLLYSSNQKNYLAWYQQKPGQSPKLLIYWASTRESGVPDRFTGSGSGTDFTLTISSVQAEDLAVYFCQHYYSYPPTFGGGTKLEIK

The remaining lines, values behind:

Binder | Kd
aNRP2-37v2 (antibody, V domains shown) VH: DVKLVESGEGLVKPGGSLKLSCAASGFTFSDYALSWVRQTPEKRLEWVAYISSGGDYIYYADTVRGRFTISRDNARNTLYLQMSSLQSEDTAIYYCTRGGQDDYWGQGTTLTVSS VL: DVVMTQTPLSLPVILGDQASISCRSSQSLVHSNGNTYLQWYLQKPGQSPKLLIYKVSNRFSGVPDRFSGSGSGTDFTLKISRVEAEDLGVYFCSQSTHVPFTFGSGTNLEIK | 0.767 nM
aNRP2-403v2 (antibody, V domains shown) VH: QVQLQQPGAELVKPGASVKLSCKASGYTFTSYWMHWVKQRPGRGLEWIGRIDPNSGDTKYNEKFKSKATLTVDKPSSTAYMQVSSLTSEDSAVYYCARSYDYALEYWGQGTSVTVSS VL: DVVMTQTPLSLPVSLGDQASISCRSSQSLVHSNGNTYLHWFLQKPGQSPNLLIYKVSNRFSGVPDRFSGSGSGTDFTLKISRVEAEDLGVYFCSQNTRVPRTFGGGTKLEIK | 1.4 nM
aNRP2-401v2 (antibody, V domains shown) VH: EVQLQESGGGLVKPGGSLKLSCAASGFTFSDYGMHWVRQAPEKGLEWVATISRDINTVYYADTVKGRFTISRDNAKNTLFLQVTSLRSEDTAMYYCTRGGYTDYWGQGTTLTVSS VL: DIVMTQTPLSLPVSLGDQASISCRSSQSLVHSNGNTYLYWYLQRPGQSPKLLIYKVSNRFSGVPDRFSGSGSGTDFTLKISRVEAEDLGVYFCSQSTHVLTFGGGTKLEIK | 0.136 nM
aNRP2-400v2 (antibody, V domains shown) VH: EVQLQESGAELARPGASVKLSCKASGYTFRSYGISWVKQRTGQGLEWIGEIYPRSGNTYYDENFKGRATLTADKSSSTAFMELRSLTSEDSAVYFCARSSITAVVAIPYYYAMDYWGQGTSVTVSS VL: DIQMTQTTSSLSASLGDRVTISCSASQGISNYLNWYQQKPDGSVKLLIYYTSSLHSGVPSRFSGSGSGTDYSLTISNLEPEDIATYYCQQYSKLPHTFGGGTKLELK | 0.453 nM

Each binder was assayed against recombinant NRP2 isoform a (human) (UniProt O60462) (assay: BLI (Octet RED96e)).

Kd | koff | kon | Binder
0.391 nM | 0.000293 s⁻¹ | 748000 M⁻¹ s⁻¹ | aNRP2-401v5 (antibody, V domains shown) VH: EVQLVESGGGLVQPGGSLRLSCAASGFTFSDYGMHWVRQAPGKGLEWVSTISRDINTVYYADTVKGRFTISRDNAKNSLYLQMNSLRAEDTAVYYCARGGYTDYWGQGTTVTVSS VL: DIVMTQTPLSLSVTPGQPASISCRSSQSLVHSNGNTYLYWYLQKPGQSPQLLIYKVSNRFSGVPDRFSGSGSGTDFTLKISRVEAEDVGVYYCSQSTHVLTFGGGTKVEIK
0.162 nM | 0.000162 s⁻¹ | 999000 M⁻¹ s⁻¹ | aNRP2-401v6 (antibody, V domains shown) VH: EVQLVESGGGLVQPGGSLRLSCAASGFTFSDYGMHWVRQAPGKGLEWVSTISRDINTVYYADTVKGRFTISRDNAKNSLYLQMNSLRAEDTAVYYCARGGYTDYWGQGTTVTVSS VL: DIVMTQTPLSLSVTPGQPASISCRSSQSLVHSNGNTYLYWYLQKPGQSPQLLIYKVSNRFSGVPDRFSGSGSGTDFTLKISRVEAEDVGVYYCAQSTHPLTFGGGTKVEIK
0.0989 nM | 0.00012 s⁻¹ | 1.21e+06 M⁻¹ s⁻¹ | aNRP2-401v8 (antibody, V domains shown) VH: EVQLVESGGGLVQPGGSLRLSCAASGFTFSDYGMHWVRQAPGKGLEWVSTISRDIQTVYYADTVKGRFTISRDNAKNSLYLQMNSLRAEDTAVYYCARGGYTDYWGQGTTVTVSS VL: DIVMTQTPLSLSVTPGQPASISCRSSQSLVHSNGNTYLYWYLQKPGQSPQLLIYKVSNRFSGVPDRFSGSGSGTDFTLKISRVEAEDVGVYYCAQSTHPLTFGGGTKVEIK
0.141 nM | 0.000173 s⁻¹ | 1.23e+06 M⁻¹ s⁻¹ | aNRP2-401v7 (antibody, V domains shown) VH: EVQLVESGGGLVQPGGSLRLSCAASGFTFSDYGMHWVRQAPGKGLEWVSTISRSINTVYYADTVKGRFTISRDNAKNSLYLQMNSLRAEDTAVYYCARGGYTDYWGQGTTVTVSS VL: DIVMTQTPLSLSVTPGQPASISCRSSQSLVHSNGNTYLYWYLQKPGQSPQLLIYKVSNRFSGVPDRFSGSGSGTDFTLKISRVEAEDVGVYYCAQSTHPLTFGGGTKVEIK
